Data: paper PMC6078178 (Nature, 2017)

T1: TFIIE (Tfa1 and Tfa2) (S. cerevisiae, UniProt P36100 1-482; P36145 1-328)
T1 sequence (looked up) 1: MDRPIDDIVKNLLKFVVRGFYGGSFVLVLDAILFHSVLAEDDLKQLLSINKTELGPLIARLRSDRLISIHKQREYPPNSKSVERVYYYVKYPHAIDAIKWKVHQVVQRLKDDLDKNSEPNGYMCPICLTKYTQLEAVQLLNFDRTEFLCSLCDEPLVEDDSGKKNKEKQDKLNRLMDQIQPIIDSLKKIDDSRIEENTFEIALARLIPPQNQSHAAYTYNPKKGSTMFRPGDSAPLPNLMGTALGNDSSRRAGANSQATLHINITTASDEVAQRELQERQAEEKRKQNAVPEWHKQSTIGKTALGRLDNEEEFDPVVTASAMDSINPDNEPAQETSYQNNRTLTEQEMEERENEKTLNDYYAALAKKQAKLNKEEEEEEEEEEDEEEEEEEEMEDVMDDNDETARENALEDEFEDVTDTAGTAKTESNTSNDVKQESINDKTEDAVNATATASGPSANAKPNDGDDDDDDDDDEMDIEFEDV
T1 sequence (looked up) 2: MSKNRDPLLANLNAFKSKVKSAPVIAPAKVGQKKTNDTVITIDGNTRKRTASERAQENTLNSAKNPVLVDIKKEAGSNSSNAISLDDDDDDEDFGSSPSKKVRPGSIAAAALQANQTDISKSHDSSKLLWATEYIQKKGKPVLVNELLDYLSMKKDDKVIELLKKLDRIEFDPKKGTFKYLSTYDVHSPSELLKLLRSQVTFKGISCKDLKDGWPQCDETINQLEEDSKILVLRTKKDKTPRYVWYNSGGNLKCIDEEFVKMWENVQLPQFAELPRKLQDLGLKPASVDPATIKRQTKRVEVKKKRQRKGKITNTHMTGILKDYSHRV

T2: Ssl2 (S. cerevisiae, UniProt Q00578 1-843)
T2 sequence (looked up): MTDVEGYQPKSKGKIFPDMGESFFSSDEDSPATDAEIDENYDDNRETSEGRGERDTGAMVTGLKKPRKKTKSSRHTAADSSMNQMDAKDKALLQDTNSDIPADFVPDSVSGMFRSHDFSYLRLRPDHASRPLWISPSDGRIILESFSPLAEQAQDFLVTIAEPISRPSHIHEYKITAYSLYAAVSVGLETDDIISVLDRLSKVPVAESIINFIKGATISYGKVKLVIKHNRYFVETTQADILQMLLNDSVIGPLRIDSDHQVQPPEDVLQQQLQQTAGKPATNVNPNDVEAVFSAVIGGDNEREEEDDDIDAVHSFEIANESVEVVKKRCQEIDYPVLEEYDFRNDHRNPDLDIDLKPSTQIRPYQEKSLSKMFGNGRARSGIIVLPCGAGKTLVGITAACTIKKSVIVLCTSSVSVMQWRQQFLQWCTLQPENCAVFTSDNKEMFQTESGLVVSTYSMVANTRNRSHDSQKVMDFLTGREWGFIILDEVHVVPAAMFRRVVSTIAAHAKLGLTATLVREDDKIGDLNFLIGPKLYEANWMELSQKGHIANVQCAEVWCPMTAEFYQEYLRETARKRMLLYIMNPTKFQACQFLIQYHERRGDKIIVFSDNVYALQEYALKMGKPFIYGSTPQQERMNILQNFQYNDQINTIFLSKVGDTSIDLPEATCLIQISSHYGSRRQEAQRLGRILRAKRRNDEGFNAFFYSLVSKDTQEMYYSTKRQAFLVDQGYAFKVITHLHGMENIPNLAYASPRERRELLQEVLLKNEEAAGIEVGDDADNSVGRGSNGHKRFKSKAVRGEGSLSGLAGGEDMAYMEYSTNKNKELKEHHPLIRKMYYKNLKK

T3: Tfb1 (S. cerevisiae, UniProt P32776 1-642)
T3 sequence (looked up): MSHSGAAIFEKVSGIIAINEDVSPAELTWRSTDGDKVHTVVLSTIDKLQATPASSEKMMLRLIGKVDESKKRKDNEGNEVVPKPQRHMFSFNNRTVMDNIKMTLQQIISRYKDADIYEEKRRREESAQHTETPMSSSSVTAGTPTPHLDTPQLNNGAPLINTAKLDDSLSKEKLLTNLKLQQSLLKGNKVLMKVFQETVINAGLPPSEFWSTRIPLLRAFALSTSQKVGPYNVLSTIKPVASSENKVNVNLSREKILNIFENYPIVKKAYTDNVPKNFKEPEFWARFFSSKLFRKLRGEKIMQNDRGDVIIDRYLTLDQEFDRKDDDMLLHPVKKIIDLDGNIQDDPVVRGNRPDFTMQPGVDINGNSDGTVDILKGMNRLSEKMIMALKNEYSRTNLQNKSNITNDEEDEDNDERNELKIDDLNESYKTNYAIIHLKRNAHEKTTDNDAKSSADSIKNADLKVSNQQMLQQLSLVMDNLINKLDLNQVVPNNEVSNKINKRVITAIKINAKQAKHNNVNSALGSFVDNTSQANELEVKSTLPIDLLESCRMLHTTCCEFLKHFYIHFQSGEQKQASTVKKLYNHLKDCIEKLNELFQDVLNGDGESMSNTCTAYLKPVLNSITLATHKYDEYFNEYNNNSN

T4: Tfb2 (S. cerevisiae, UniProt Q02939 1-513)
T4 sequence (looked up): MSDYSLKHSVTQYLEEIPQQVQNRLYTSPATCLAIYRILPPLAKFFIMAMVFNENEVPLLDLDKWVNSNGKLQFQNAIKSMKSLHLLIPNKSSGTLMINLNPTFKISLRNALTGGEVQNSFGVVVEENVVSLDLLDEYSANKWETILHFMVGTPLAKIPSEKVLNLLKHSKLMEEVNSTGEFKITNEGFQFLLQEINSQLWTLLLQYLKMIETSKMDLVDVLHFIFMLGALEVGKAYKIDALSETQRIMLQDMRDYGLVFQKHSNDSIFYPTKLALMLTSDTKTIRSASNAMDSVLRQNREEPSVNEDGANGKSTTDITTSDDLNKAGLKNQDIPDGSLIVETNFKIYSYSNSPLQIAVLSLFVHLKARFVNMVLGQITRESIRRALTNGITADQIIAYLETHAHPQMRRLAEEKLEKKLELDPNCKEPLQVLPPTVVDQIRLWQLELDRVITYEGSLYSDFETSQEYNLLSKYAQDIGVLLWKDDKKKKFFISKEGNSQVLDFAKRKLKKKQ

T5: Med8 (S. cerevisiae, UniProt P38304 1-223)
T5 sequence (looked up): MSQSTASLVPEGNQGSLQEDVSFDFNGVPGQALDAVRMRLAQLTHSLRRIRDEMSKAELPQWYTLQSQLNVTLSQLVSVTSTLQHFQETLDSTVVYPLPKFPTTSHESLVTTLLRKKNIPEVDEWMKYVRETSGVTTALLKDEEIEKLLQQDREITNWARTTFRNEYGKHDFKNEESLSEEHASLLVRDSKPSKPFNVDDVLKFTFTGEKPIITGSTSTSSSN

B1: Rpb7 (Pol II stalk subunit) (natural protein, S. cerevisiae, UniProt P34087 1-171, looked up)
chain: MFFIKDLSLNITLHPSFFGPRMKQYLKTKLLEEVEGSCTGKFGYILCVLDYDNIDIQRGRILPTDGSAEFNVKYRAVVFKPFKGEVVDGTVVSCSQHGFEVQVGPMKVFVTKHLMPQDLTFNAGSNPPSYQSSEDVITIKSRIRVKIEGCISQVSSIHAIGSIKEDYLGAI
B2: Tfb3 (natural protein, S. cerevisiae, UniProt Q03290 1-321, looked up)
chain: MLMDEYEENKDMCPICKTDRYLSPDVKFLVNPECYHRICESCVDRIFSLGPAQCPYKGCDKILRKNKFKTQIFDDVEVEKEVDIRKRVFNVFNKTIDDFNGDLVEYNKYLEEVEDIIYKLDHGIDVAKTEEKLRTYEELNKQLIMNNLERSRTEIESFEQRQKFEKEMKLKKRLLERQIEEEERMNKEWTKKEIVNRLSTTTQDINETIEGVKNTVKLKKSSARRKLEELNRVLKNNPYFNSNVNVQNSRLKDAVPFTPFNGDREAHPRFTLKGSVYNDPFIKDLEHRKEFIASGFNTNYAYERVLTEAFMGLGCVISEEL
B3: Tfa1 (TFIIE subunit) (natural protein, S. cerevisiae, UniProt P36100 1-482, looked up)
chain: T1 sequence (looked up) 1
B4: Med22 (natural protein, S. cerevisiae, UniProt P32570 1-121, looked up)
chain: MSNQALYEKLEQTRTILSVKLAELINMTTIADRNDDDEGSFAQENSELAVATTSVMMVNNQTMQLIKNVQDLLILTRSIKEKWLLNQIPVTEHSKVTRFDEKQIEELLDNCIETFVAEKTT
B5: Rpb4 (Pol II stalk subunit) (natural protein, S. cerevisiae)
chain: MNVSTSTFQTRRRRLKKVEEEENAATLQLGQEFQLKQINHQGEEEELIALNLSEARLVIKEALVERRRAFKRSQKKHKKKHLKHENANDETTAVEDEDDDLDEDDVNADDDDFMHSETREKELESIDVLLEQTTGGNNKDLKNTMQYLTNFSRFRDQETVGAVIQLLKSTGLHPFEVAQLGSLACDTADEAKTLIPSLNNKISDDELERILKELSNLETLY

Experiments:
Tfb3 = molecular target: B2; experiment: cryo-EM structure
TFIIE (Tfa1 and Tfa2) = molecular target: T1, TFIIE (Tfa1 and Tfa2); experiment: cryo-EM structure
Ssl2 = molecular target: T2, Ssl2; experiment: cryo-EM structure
Tfb1 = molecular target: T3, Tfb1; experiment: cryo-EM structure
Tfb2 = molecular target: T4, Tfb2; experiment: cross-linking
[1] = molecular target: B5; experiment: cryo-EM structure
Med8 = molecular target: T5, Med8; experiment: cryo-EM structure

B1
binding result (Tfb3): binds

B2
binding result (TFIIE (Tfa1 and Tfa2)): binds

B3
binding result (Ssl2): binds | binding result (Tfb1): binds | binding result (Tfb2): binds

B4
binding result [1]: binds

B5
binding result (Med8): binds
